Experimental data published in publication PMC12893043.

Target: GFP(+36)
Assay: time-resolved fluorescence anisotropy; AfFtn-GFP(+36) assembly at pH 7.6 with 500 mM NaCl and with 175 mM NaCl; [GFP] = 1 uM; biexponential fit (instrument response, rotational diffusion of the assembly), no homoFRET; triplicate

stoichiometry N: 12 to 1
Substance: AfFtn (from UniProt O29424 1-173)
